The source of these data is patent US20100092465A1, “TREATMENT OF GRAFT-VERSUS-HOST DISEASE” (priority 2006, published 2010).

The nature of series [1]: Pharmacokinetics of soluble receptors in female C57B1/6 mice. Type of series: in vivo, mouse. As to conditions: for terminal / circulatory half-life, comparison in words: human Fc5 fusion versus mouse Fc1 fusion. On the procedure: Studies were performed to evaluate the pharmacokinetics of the mouse (IL-27RAm(mFc1)) and human (IL-27RA-Fc5) soluble receptors in female C57B1/6 mice.
Serum was generated from each sample and analyzed by a qualified enzyme-linked immunosorbant assay (ELISA). The resulting mean serum concentration versus time profiles were then subjected to noncompartmental pharmacokinetic analyses. The following pharmacokinetic parameters were calculated: C0 and Cmax (extrapolated concentration at time zero and maximum serum concentration, respectively), Tmax (time to achieve maximum concentration), t1/2 λz (terminal half-life), AUC0-t (area under the concentration versus time curve from time zero to the last measurable time point), AUCINF (area under the concentration versus time curve extrapolated to infinity), Cl or Cl/F (clearance or clearance divided by bioavailable fraction, respectively), VSS or VZ/F (steady state volume of distribution or volume of distribution divided by the bioavailable fraction, respectively), and F (bioavailable fraction).

Series [2] deals with T1, mouse ligand (single-chain IL27) (Mus musculus, UniProt O35228+Q8K3I6).
T1 construct: amino-terminal peptide tag (FLAG in lot A1426F) (N)
T1 sequence (O35228+Q8K3I6 with tags, fused parts or gaps): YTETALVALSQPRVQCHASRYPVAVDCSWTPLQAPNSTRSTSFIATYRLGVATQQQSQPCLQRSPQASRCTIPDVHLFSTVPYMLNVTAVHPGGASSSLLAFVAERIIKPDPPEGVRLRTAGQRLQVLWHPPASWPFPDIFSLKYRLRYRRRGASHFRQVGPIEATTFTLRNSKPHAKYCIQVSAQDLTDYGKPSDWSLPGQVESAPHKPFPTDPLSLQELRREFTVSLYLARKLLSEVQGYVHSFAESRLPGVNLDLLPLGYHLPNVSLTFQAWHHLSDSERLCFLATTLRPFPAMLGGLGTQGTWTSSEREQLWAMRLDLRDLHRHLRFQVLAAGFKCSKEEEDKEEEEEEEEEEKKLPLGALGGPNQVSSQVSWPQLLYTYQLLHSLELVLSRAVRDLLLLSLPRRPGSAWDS
The series is described as follows: SPR kinetics of soluble receptors with mouse IL27 ligand. As to conditions: binding with mouse ligand; gp130 not included. On the procedure:
Kinetic rate and affinity constant values for the mouse (IL27RAm(mFc1), Example 3) and human (IL27RA-Fc5, Example 4) soluble receptors were obtained by surface plasmon resonance (SPR) using an automated instrument (BIACORE 3000; Biacore International AB, Uppsala, Sweden). The mouse soluble receptor was tested against mouse ligand (lot A1418F), and the human soluble receptor was tested against both mouse (A1426F) and human (A1534F) ligands. For determination of the kinetic rate constants for the receptor-ligand interactions, the gp130 molecule was not included as part of the receptor complex.
The IL27 ligands used in this study were single-chain molecules comprising EBI3 connected by its C-terminus to the N-terminus of IL-27 p28 via a polypeptide linker. Each of the ligands included an amino-terminal peptide tag.
For the mouse IL27RA study, the soluble receptor was captured onto the chip surface by an isotype-specific anti-mouse Fc antibody (obtained from Jackson ImmunoResearch Laboratories, Inc., West Grove, Pa.) covalently immobilized to the chip (BIACORE CM5 chip) using the standard amine coupling protocol specified by the instrument manufacturer. […]
All data were assessed using software provided with the instrument (BIACORE Evaluation software v. 3.2). […]
On the technique in general: Surface plasmon resonance follows binding to a sensor surface in real time, without labels.

The Tmax is the time at which the peak concentration occurs. Usually Cmax stands for the highest concentration seen after dosing. Usually Vss stands for a proportionality between amount in the body and measured concentration, not a real space. Read a high Vss as extensive tissue distribution. With “human IL-27RA-Fc5: human IL27RA extracellular domain (amino acids 1 to 512 of SEQ ID NO:5) fused to Fc5, effector minus human gamma1 Fc; SEQ ID NO:3”, in series [1] (IP, 100 μg), the AUC0-120 is 1310 µg·h/mL, the AUCINF was 1380 µg·h/mL, the Cl/F worked out at 0.0725 mL/h and the Tmax is reported as 3 h. For the same substance, in series [1] (IP, 100 μg), the “t1/2 λz” value stood at 28.3 h. The substance also yielded a Cmax in series [1] (IP, 100 μg, serum) of 35.2 µg/mL. In series [1] (IV, 100 μg), this substance showed an AUC0-120 of 1400 µg·h/mL, an AUCINF of 1510 µg·h/mL, a Cl of 0.0664 mL/h and a Vss of 2.54 mL. Further, in series [1] (IV, 100 μg), the “t1/2 λz” value is given as 34.9 h. The same substance displayed a Co in series [1] (IV, 100 μg, serum) of 122 µg/mL. Also, in series [1] (SC, 100 μg), the AUC0-120 turned out to be 1130 µg·h/mL, the AUCINF is 1210 µg·h/mL, the Cl/F was 0.0828 mL/h and the Tmax is recorded as 6 h. The “t1/2 λz” value in series [1] (SC, 100 μg) is 29.3 h. In series [1] (SC, 100 μg, serum), this substance had a Cmax of 21.0 µg/mL. Also, in series [1] (listed as fusion protein comprising an Fc fragment that had been engineered to remove effe), the “terminal / circulatory half-life, comparison in words” value is “markedly improved circulatory half-life”. Also, the “terminal / circulatory half-life, comparison in words” value in series [1] (listed as human Fc5 fusion protein) was “much longer terminal half-life”. Besides, in series [2], the ka amounted to 8.1e+06 M⁻¹ s⁻¹ and the kd turned out to be 0.0018 s⁻¹.
